The text below walks through data of publication PMC10540216, “Activity Guided Azide-methyllysine Photo-trapping for Substrate Profiling of Lysine Demethylases” (Journal of the American Chemical Society, 2023).

The test system of this test is KDM4A-I71AzF. Kind of test: CASI: photo-crosslinking with HEK293T cell extracts, StrepTactin enrichment and LC-MS/MS proteomics.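 Also: lysates from HEK293T cells pretreated with a KDM4 inhibitor to raise proteome methylation, affinity-purified after ±UV, gel-resolved, trypsin-digested, with exclusive unique peptides per protein averaged per condition.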 In kind it is binding, human. Conditions: sheet "Final results but with 0.01".

B1: CSTF3_HUMAN (protein, UniProt Q12996 2-717, looked up)
Cleavage stimulation factor …: SGDGATEQAAEYVPEKVKKAEKKLEENPYDLDAWSILIREAQNQPIDKARKTYERLVAQFPSSGRFWKLYIEAEIKAKNYDKVEKLFQRCLMKVLHIDLWKCYLSYVRETKGKLPSYKEKMAQAYDFALDKIGMEIMSYQIWVDYINFLKGVEAVGSYAENQRITAVRRVYQRGCVNPMINIEQLWRDYNKYEEGINIHLAKKMIEDRSRDYMNARRVAKEYETVMKGLDRNAPSVPPQNTPQEAQQVDMWKKYIQWEKSNPLRTEDQTLITKRVMFAYEQCLLVLGHHPDIWYEAAQYLEQSSKLLAEKGDMNNAKLFSDEAANIYERAISTLLKKNMLLYFAYADYEESRMKYEKVHSIYNRLLAIEDIDPTLVYIQYMKFARRAEGIKSGRMIFKKAREDTRTRHHVYVTAALMEYYCSKDKSVAFKIFELGLKKYGDIPEYVLAYIDYLSHLNEDNNTRVLFERVLTSGSLPPEKSGEIWARFLAFESNIGDLASILKVEKRRFTAFKEEYEGKETALLVDRYKFMDLYPCSASELKALGYKDVSRAKLAAIIPDPVVAPSIVPVLKDEVDRKPEYPKPDTQQMIPFQPRHLAPPGLHPVPGGVFPVPPAAVVLMKLLPPPICFQGPFVQVDELMEIFRRCKIPNTVEEAVRIITGGAPELAVEGNGPVESNAVLTKAVKRPNEDSDEDEEKGAVVPPVHDIYRARQQKRIR
For the molecule B1, the “Fold change (+UV/-UV)” value came to 0.

B2: SATB2_HUMAN (protein, UniProt Q9UPW6 1-733, looked up)
DNA-binding protein SATB2: MERRSESPCLRDSPDRRSGSPDVKGPPPVKVARLEQNGSPMGARGRPNGAVAKAVGGLMIPVFCVVEQLDGSLEYDNREEHAEFVLVRKDVLFSQLVETALLALGYSHSSAAQAQGIIKLGRWNPLPLSYVTDAPDATVADMLQDVYHVVTLKIQLQSCSKLEDLPAEQWNHATVRNALKELLKEMNQSTLAKECPLSQSMISSIVNSTYYANVSATKCQEFGRWYKKYKKIKVERVERENLSDYCVLGQRPMHLPNMNQLASLGKTNEQSPHSQIHHSTPIRNQVPALQPIMSPGLLSPQLSPQLVRQQIAMAHLINQQIAVSRLLAHQHPQAINQQFLNHPPIPRAVKPEPTNSSVEVSPDIYQQVRDELKRASVSQAVFARVAFNRTQGLLSEILRKEEDPRTASQSLLVNLRAMQNFLNLPEVERDRIYQDERERSMNPNVSMVSSASSSPSSSRTPQAKTSTPTTDLPIKVDGANINITAAIYDEIQQEMKRAKVSQALFAKVAANKSQGWLCELLRWKENPSPENRTLWENLCTIRRFLNLPQHERDVIYEEESRHHHSERMQHVVQLPPEPVQVLHRQQSQPAKESSPPREEAPPPPPPTEDSCAKKPRSRTKISLEALGILQSFIHDVGLYPDQEAIHTLSAQLDLPKHTIIKFFQNQRYHVKHHGKLKEHLGSAVDVAEYKDEELLTESEENDSEEGSEEMYKVEAEEENADKSKAAPAEIDQR
Regarding B2, the “Fold change (+UV/-UV)” value is listed as 1.

B3: DDX1_HUMAN (protein, UniProt Q92499 1-740, looked up)
ATP-dependent RNA helicase …: MAAFSEMGVMPEIAQAVEEMDWLLPTDIQAESIPLILGGGDVLMAAETGSGKTGAFSIPVIQIVYETLKDQQEGKKGKTTIKTGASVLNKWQMNPYDRGSAFAIGSDGLCCQSREVKEWHGCRATKGLMKGKHYYEVSCHDQGLCRVGWSTMQASLDLGTDKFGFGFGGTGKKSHNKQFDNYGEEFTMHDTIGCYLDIDKGHVKFSKNGKDLGLAFEIPPHMKNQALFPACVLKNAELKFNFGEEEFKFPPKDGFVALSKAPDGYIVKSQHSGNAQVTQTKFLPNAPKALIVEPSRELAEQTLNNIKQFKKYIDNPKLRELLIIGGVAARDQLSVLENGVDIVVGTPGRLDDLVSTGKLNLSQVRFLVLDEADGLLSQGYSDFINRMHNQIPQVTSDGKRLQVIVCSATLHSFDVKKLSEKIMHFPTWVDLKGEDSVPDTVHHVVVPVNPKTDRLWERLGKSHIRTDDVHAKDNTRPGANSPEMWSEAIKILKGEYAVRAIKEHKMDQAIIFCRTKIDCDNLEQYFIQQGGGPDKKGHQFSCVCLHGDRKPHERKQNLERFKKGDVRFLICTDVAARGIDIHGVPYVINVTLPDEKQNYVHRIGRVGRAERMGLAISLVATEKEKVWYHVCSSRGKGCYNTRLKEDGGCTIWYNEMQLLSEIEEHLNCTISQVEPDIKVPVDEFDGKVTYGQKRAAGGGSYKGHVDILAPTVQELAALEKEAQTSFLHLGYLPNQLFRTF
Take B3: the “Fold change (+UV/-UV)” value worked out at 1.333.

B4: ODP2_HUMAN (protein, UniProt P10515 87-647, looked up)
Dihydrolipoyllysine-residue …: SLPPHQKVPLPSLSPTMQAGTIARWEKKEGDKINEGDLIAEVETDKATVGFESLEECYMAKILVAEGTRDVPIGAIICITVGKPEDIEAFKNYTLDSSAAPTPQAAPAPTPAATASPPTPSAQAPGSSYPPHMQVLLPALSPTMTMGTVQRWEKKVGEKLSEGDLLAEIETDKATIGFEVQEEGYLAKILVPEGTRDVPLGTPLCIIVEKEADISAFADYRPTEVTDLKPQVPPPTPPPVAAVPPTPQPLAPTPSAPCPATPAGPKGRVFVSPLAKKLAVEKGIDLTQVKGTGPDGRITKKDIDSFVPSKVAPAPAAVVPPTGPGMAPVPTGVFTDIPISNIRRVIAQRLMQSKQTIPHYYLSIDVNMGEVLLVRKELNKILEGRSKISVNDFIIKASALACLKVPEANSSWMDTVIRQNHVVDVSVAVSTPAGLITPIVFNAHIKGVETIANDVVSLATKAREGKLQPHEFQGGTFTISNLGMFGIKNFSAIINPPQACILAIGASEDKLVPADNEKGFDVASMMSVTLSCDHRVVDGAVGAQWLAEFRKYLEKPITMLL
B4: the “Fold change (+UV/-UV)” value amounted to 1.

B5: MTA2_HUMAN (protein, UniProt O94776 1-668, looked up)
Metastasis-associated protein …: MAANMYRVGDYVYFENSSSNPYLVRRIEELNKTANGNVEAKVVCLFRRRDISSSLNSLADSNAREFEEESKQPGVSEQQRHQLKHRELFLSRQFESLPATHIRGKCSVTLLNETDILSQYLEKEDCFFYSLVFDPVQKTLLADQGEIRVGCKYQAEIPDRLVEGESDNRNQQKMEMKVWDPDNPLTDRQIDQFLVVARAVGTFARALDCSSSIRQPSLHMSAAAASRDITLFHAMDTLQRNGYDLAKAMSTLVPQGGPVLCRDEMEEWSASEAMLFEEALEKYGKDFNDIRQDFLPWKSLASIVQFYYMWKTTDRYIQQKRLKAAEADSKLKQVYIPTYTKPNPNQIISVGSKPGMNGAGFQKGLTCESCHTTQSAQWYAWGPPNMQCRLCASCWIYWKKYGGLKTPTQLEGATRGTTEPHSRGHLSRPEAQSLSPYTTSANRAKLLAKNRQTFLLQTTKLTRLARRMCRDLLQPRRAARRPYAPINANAIKAECSIRLPKAAKTPLKIHPLVRLPLATIVKDLVAQAPLKPKTPRGTKTPINRNQLSQNRGLGGIMVKRAYETMAGAGVPFSANGRPLASGIRSSSQPAAKRQKLNPADAPNPVVFVATKDTRALRKALTHLEMRRAARRPNLPLKVKPTLIAVRPPVPLPAPSHPASTNEPIVLED
For the molecule B5, the “Fold change (+UV/-UV)” value is reported as 4.

B6: PABP4_HUMAN (protein, UniProt Q13310 1-644, looked up)
Polyadenylate-binding protein …: MNAAASSYPMASLYVGDLHSDVTEAMLYEKFSPAGPVLSIRVCRDMITRRSLGYAYVNFQQPADAERALDTMNFDVIKGKPIRIMWSQRDPSLRKSGVGNVFIKNLDKSIDNKALYDTFSAFGNILSCKVVCDENGSKGYAFVHFETQEAADKAIEKMNGMLLNDRKVFVGRFKSRKEREAELGAKAKEFTNVYIKNFGEEVDDESLKELFSQFGKTLSVKVMRDPNGKSKGFGFVSYEKHEDANKAVEEMNGKEISGKIIFVGRAQKKVERQAELKRKFEQLKQERISRYQGVNLYIKNLDDTIDDEKLRKEFSPFGSITSAKVMLEDGRSKGFGFVCFSSPEEATKAVTEMNGRIVGSKPLYVALAQRKEERKAHLTNQYMQRVAGMRALPANAILNQFQPAAGGYFVPAVPQAQGRPPYYTPNQLAQMRPNPRWQQGGRPQGFQGMPSAIRQSGPRPTLRHLAPTGSECPDRLAMDFGGAGAAQQGLTDSCQSGGVPTAVQNLAPRAAVAAAAPRAVAPYKYASSVRSPHPAIQPLQAPQPAVHVQGQEPLTASMLAAAPPQEQKQMLGERLFPLIQTMHSNLAGKITGMLLEIDNSELLHMLESPESLRSKVDEAVAVLQAHHAKKEAAQKVGAVAAATS
With B6, the “Fold change (+UV/-UV)” value is given as 0.

B7: P66A_HUMAN (protein, UniProt Q86YP4 1-633, looked up)
Transcriptional repressor …: MTEEACRTRSQKRALERDPTEDDVESKKIKMERGLLASDLNTDGDMRVTPEPGAGPTQGLLRATEATAMAMGRGEGLVGDGPVDMRTSHSDMKSERRPPSPDVIVLSDNEQPSSPRVNGLTTVALKETSTEALMKSSPEERERMIKQLKEELRLEEAKLVLLKKLRQSQIQKEATAQKPTGSVGSTVTTPPPLVRGTQNIPAGKPSLQTSSARMPGSVIPPPLVRGGQQASSKLGPQASSQVVMPPLVRGAQQIHSIRQHSSTGPPPLLLAPRASVPSVQIQGQRIIQQGLIRVANVPNTSLLVNIPQPTPASLKGTTATSAQANSTPTSVASVVTSAESPASRQAAAKLALRKQLEKTLLEIPPPKPPAPEMNFLPSAANNEFIYLVGLEEVVQNLLETQGRMSAATVLSREPYMCAQCKTDFTCRWREEKSGAIMCENCMTTNQKKALKVEHTSRLKAAFVKALQQEQEIEQRLLQQGTAPAQAKAEPTAAPHPVLKQVIKPRRKLAFRSGEARDWSNGAVLQASSQLSRGSATTPRGVLHTFSPSPKLQNSASATALVSRTGRHSERTVSAGKGSATSNWKKTPLSTGGTLAFVSPSLAVHKSSSAVDRQREYLLDMIPPRSIPQSATWK
For B7, the “Fold change (+UV/-UV)” value was found to be 1.5.

B8: PLOD2_HUMAN (protein, UniProt O00469 26-737, looked up)
Procollagen-lysine,2-oxoglutar …: ADSEKPSSIPTDKLLVITVATKESDGFHRFMQSAKYFNYTVKVLGQGEEWRGGDGINSIGGGQKVRLMKEVMEHYADQDDLVVMFTECFDVIFAGGPEEVLKKFQKANHKVVFAADGILWPDKRLADKYPVVHIGKRYLNSGGFIGYAPYVNRIVQQWNLQDNDDDQLFYTKVYIDPLKREAINITLDHKCKIFQTLNGAVDEVVLKFENGKARAKNTFYETLPVAINGNGPTKILLNYFGNYVPNSWTQDNGCTLCEFDTVDLSAVDVHPNVSIGVFIEQPTPFLPRFLDILLTLDYPKEALKLFIHNKEVYHEKDIKVFFDKAKHEIKTIKIVGPEENLSQAEARNMGMDFCRQDEKCDYYFSVDADVVLTNPRTLKILIEQNRKIIAPLVTRHGKLWSNFWGALSPDGYYARSEDYVDIVQGNRVGVWNVPYMANVYLIKGKTLRSEMNERNYFVRDKLDPDMALCRNAREMGVFMYISNRHEFGRLLSTANYNTSHYNNDLWQIFENPVDWKEKYINRDYSKIFTENIVEQPCPDVFWFPIFSEKACDELVEEMEHYGKWSGGKHHDSRISGGYENVPTDDIHMKQVDLENVWLHFIREFIAPVTLKVFAGYYTKGFALLNFVVKYSPERQRSLRPHHDASTFTINIALNNVGEDFQGGGCKFLRYNCSIESPRKGWSFMHPGRLTHLHEGLPVKNGTRYIAVSFIDP
For B8, the “Fold change (+UV/-UV)” value was found to be 0.75.
